# Assay results taken from the supplement of paper PMC10567573.
# B1: CDS2 (parent)
# chain: IHSIALSTFASLIGPFGGFFASGF
# B2: CDC25B (parent)
# chain: ELKTFRLKTRSWAGERSRRELCSR
# Variants of: B1
# Test: protein stability index of a GFP-peptide fusion (GPS, HEK-293T) (PSI 1-6); higher = more stable
# Conditions: c terminus: a fixed tail appended
# 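Also: lentivirally expressed fusions sorted by FACS into six bins by GFP to DsRed ratio, PSI derived from sequencing read proportions per bin multiplied by bin number.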
row,Variant,protein stability index
1,GHSIALSTFASLIGPFGGFFASGF [I1G],2.84
2,NHSIALSTFASLIGPFGGFFASGF [I1N],2.63
3,FHSIALSTFASLIGPFGGFFASGF [I1F],2.15
4,AHSIALSTFASLIGPFGGFFASGF [I1A],3.5
5,THSIALSTFASLIGPFGGFFASGF [I1T],3.44
6,LHSIALSTFASLIGPFGGFFASGF [I1L],2.63
7,KHSIALSTFASLIGPFGGFFASGF [I1K],2.65
8,SHSIALSTFASLIGPFGGFFASGF [I1S],2.57
9,CHSIALSTFASLIGPFGGFFASGF [I1C],3.03
10,PHSIALSTFASLIGPFGGFFASGF [I1P],3.96
11,QHSIALSTFASLIGPFGGFFASGF [I1Q],1.48
12,VHSIALSTFASLIGPFGGFFASGF [I1V],2.61
13,HHSIALSTFASLIGPFGGFFASGF [I1H],2.21
14,EHSIALSTFASLIGPFGGFFASGF [I1E],4.34
15,DHSIALSTFASLIGPFGGFFASGF [I1D],1.79
16,YHSIALSTFASLIGPFGGFFASGF [I1Y],3.05
17,WHSIALSTFASLIGPFGGFFASGF [I1W],3.6
18,IHSIRLSTFASLIGPFGGFFASGF [A5R],3.68
19,IHSIGLSTFASLIGPFGGFFASGF [A5G],2.93
20,IHSIFLSTFASLIGPFGGFFASGF [A5F],3.17
21,IHSISLSTFASLIGPFGGFFASGF [A5S],3.12
22,IHSIQLSTFASLIGPFGGFFASGF [A5Q],3.47
23,IHSIILSTFASLIGPFGGFFASGF [A5I],3.04

row,Variant,protein stability index
1,IHSIYLSTFASLIGPFGGFFASGF [A5Y],2.88
2,IHSITLSTFASLIGPFGGFFASGF [A5T],2.36
3,IHSIKLSTFASLIGPFGGFFASGF [A5K],3.47
4,IHSIWLSTFASLIGPFGGFFASGF [A5W],2.77
5,IHSIHLSTFASLIGPFGGFFASGF [A5H],2.81
6,IHSIMLSTFASLIGPFGGFFASGF [A5M],2.14
7,IHSILLSTFASLIGPFGGFFASGF [A5L],2.15
8,IHSIVLSTFASLIGPFGGFFASGF [A5V],1.84
9,IHSICLSTFASLIGPFGGFFASGF [A5C],3.88
10,IHSIELSTFASLIGPFGGFFASGF [A5E],3.98
11,IHSIDLSTFASLIGPFGGFFASGF [A5D],2.51
12,IHSIPLSTFASLIGPFGGFFASGF [A5P],2.54
13,IHSINLSTFASLIGPFGGFFASGF [A5N],4.35
14,IHSIAESTFASLIGPFGGFFASGF [L6E],4.38
15,IHSIAASTFASLIGPFGGFFASGF [L6A],2.63
16,IHSIAFSTFASLIGPFGGFFASGF [L6F],2.34
17,IHSIACSTFASLIGPFGGFFASGF [L6C],2.06
18,IHSIARSTFASLIGPFGGFFASGF [L6R],1.67
19,IHSIAMSTFASLIGPFGGFFASGF [L6M],4.1
20,IHSIAPSTFASLIGPFGGFFASGF [L6P],2.23
21,IHSIAGSTFASLIGPFGGFFASGF [L6G],2.54
22,IHSIAKSTFASLIGPFGGFFASGF [L6K],3.48
23,IHSIAQSTFASLIGPFGGFFASGF [L6Q],2.28

row,Variant,protein stability index
1,IHSIAISTFASLIGPFGGFFASGF [L6I],3.38
2,IHSIATSTFASLIGPFGGFFASGF [L6T],1.39
3,IHSIADSTFASLIGPFGGFFASGF [L6D],3.13
4,IHSIAVSTFASLIGPFGGFFASGF [L6V],3.03
5,IHSIANSTFASLIGPFGGFFASGF [L6N],2.62
6,IHSHALSTFASLIGPFGGFFASGF [I4H],2.91
7,IHSLALSTFASLIGPFGGFFASGF [I4L],1.57
8,IHSWALSTFASLIGPFGGFFASGF [I4W],2.65
9,IHSYALSTFASLIGPFGGFFASGF [I4Y],2.14
10,IHSSALSTFASLIGPFGGFFASGF [I4S],3.51
11,IHSEALSTFASLIGPFGGFFASGF [I4E],2.14
12,IHSAALSTFASLIGPFGGFFASGF [I4A],2.44
13,IHSPALSTFASLIGPFGGFFASGF [I4P],3.8
14,IHSTALSTFASLIGPFGGFFASGF [I4T],3.82
15,IHSMALSTFASLIGPFGGFFASGF [I4M],2.86
16,IHSRALSTFASLIGPFGGFFASGF [I4R],3.04
17,IPSIALSTFASLIGPFGGFFASGF [H2P],1.95
18,ITSIALSTFASLIGPFGGFFASGF [H2T],3.98
19,IWSIALSTFASLIGPFGGFFASGF [H2W],2
20,ISSIALSTFASLIGPFGGFFASGF [H2S],2.03
21,IMSIALSTFASLIGPFGGFFASGF [H2M],2.79
22,IQSIALSTFASLIGPFGGFFASGF [H2Q],2.43
23,IISIALSTFASLIGPFGGFFASGF [H2I],2.41

row,Variant,protein stability index
1,IESIALSTFASLIGPFGGFFASGF [H2E],1.8
2,IYSIALSTFASLIGPFGGFFASGF [H2Y],3.65
3,ICSIALSTFASLIGPFGGFFASGF [H2C],4.54
4,IGSIALSTFASLIGPFGGFFASGF [H2G],3.52
5,IKSIALSTFASLIGPFGGFFASGF [H2K],3.27
6,IDSIALSTFASLIGPFGGFFASGF [H2D],2.57
7,IASIALSTFASLIGPFGGFFASGF [H2A],2.61
8,IHTIALSTFASLIGPFGGFFASGF [S3T],2.8
9,IHPIALSTFASLIGPFGGFFASGF [S3P],2.89
10,IHLIALSTFASLIGPFGGFFASGF [S3L],4.15
11,IHGIALSTFASLIGPFGGFFASGF [S3G],2.49
12,IHVIALSTFASLIGPFGGFFASGF [S3V],3.02
13,IHIIALSTFASLIGPFGGFFASGF [S3I],3.44
14,IHFIALSTFASLIGPFGGFFASGF [S3F],3.44
15,IHNIALSTFASLIGPFGGFFASGF [S3N],4.17
16,IHYIALSTFASLIGPFGGFFASGF [S3Y],2.06
17,IHEIALSTFASLIGPFGGFFASGF [S3E],3.44
18,IHKIALSTFASLIGPFGGFFASGF [S3K],3.55
19,IHDIALSTFASLIGPFGGFFASGF [S3D],3.74
20,IHCIALSTFASLIGPFGGFFASGF [S3C],4.47
21,IHQIALSTFASLIGPFGGFFASGF [S3Q],2.4

# Variants of: B2
# Test: as above
# Conditions: c terminus: a fixed tail appended
row,Variant,protein stability index
1,ELKTFRLKTRSWAGERSRRELCST [R24T],2.73
2,ELKTFRLKTRSWAGERSRRELCSW [R24W],2.58
3,ELKTFRLKTRSWAGERSRRELCSV [R24V],2.7
4,ELKTFRLKTRSWAGERSRRELCSY [R24Y],2.33
